± gives the standard error. Variants at the floor of the assay were thinned out.
B1: glmS ribozyme (parent)
chain: AUAAAAGCGCCAGAACUACAGAAAUGUAGUUGACGAGGAGGAGGUUUAUCGAAUUUUCGGCGGAUGCCUCCAAA

Assays:
Settings in all cases: with glucosamine-6-phosphate
glucosamine-6-phosphate [1] = variants of: B1; assay: self-cleavage kobs at 40 uM GlcN6P; higher = faster cleavage; RNA array
How it was run: (§1)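 Weighted Michaelis–Menten fits across concentrations supplied kcat and KM, based on kobs from one- or two-exponential decay fits to normalised per-tile medians. The data came from barcoded ribozyme variants transcribed in situ by E. coli RNA polymerase on sequenced MiSeq chips and tracked at 37 °C by a hybridised Cy3 probe. Glucosamine-6-phosphate (40 μM to 10 mM) in HEPES/KCl/Mg(OAc)2 buffer was flowed in.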

glucosamine-6-phosphate [2] = variants of: B1; assay: self-cleavage kobs at 160 uM GlcN6P; higher = faster cleavage; RNA array
How it was run: as §1

glucosamine-6-phosphate [3] = variants of: B1; assay: self-cleavage kobs at 640 uM GlcN6P; higher = faster cleavage; RNA array
How it was run: as §1

glucosamine-6-phosphate [4] = variants of: B1; assay: self-cleavage kobs at 10000 uM GlcN6P; higher = faster cleavage; RNA array
How it was run: as §1

glucosamine-6-phosphate [5] = variants of: B1; assay: self-cleavage kobs at 2500 uM GlcN6P; higher = faster cleavage; RNA array
How it was run: as §1

Variant	self-cleavage kobs at 40 uM GlcN6P (glucosamine-6-phosphate [1])	self-cleavage kobs at 160 uM GlcN6P (glucosamine-6-phosphate [2])	self-cleavage kobs at 640 uM GlcN6P (glucosamine-6-phosphate [3])	self-cleavage kobs at 10000 uM GlcN6P (glucosamine-6-phosphate [4])	self-cleavage kobs at 2500 uM GlcN6P (glucosamine-6-phosphate [5])
A33U G44U	< 1e-05 s⁻¹	< 1e-05 s⁻¹	< 1e-05 s⁻¹	< 1e-05 s⁻¹	–
C16A G29U U30G U49G C70U	< 1e-05 s⁻¹	–	–	–	–
G43A G51U	< 1e-05 s⁻¹	< 1e-05 s⁻¹	–	–	< 1e-05 s⁻¹
A15U G32A A42C U54C U56G G63A	< 1e-05 s⁻¹	–	–	–	–
A6U U31C G41A	< 1e-05 s⁻¹	–	–	< 1e-05 s⁻¹	–
U45G C50A U65G	< 1e-05 s⁻¹	–	< 1e-05 s⁻¹	–	–
C8G U31G	< 1e-05 s⁻¹	< 1e-05 s⁻¹	< 1e-05 s⁻¹	–	< 1e-05 s⁻¹
C10G A53U G59A C70G	< 1e-05 s⁻¹	–	–	< 1e-05 s⁻¹	–
G59U G60U	< 1e-05 s⁻¹	< 1e-05 s⁻¹	< 1e-05 s⁻¹	–	< 1e-05 s⁻¹
U45C G59U	< 1e-05 s⁻¹	< 1e-05 s⁻¹	< 1e-05 s⁻¹	< 1e-05 s⁻¹	–
A52U U55A U57C C67A	< 1e-05 s⁻¹	–	–	< 1e-05 s⁻¹	–
C34G A52C	< 1e-05 s⁻¹	< 1e-05 s⁻¹	< 1e-05 s⁻¹	< 1e-05 s⁻¹	< 1e-05 s⁻¹
A33G G35A U47A C67U C70G	5.2e-05 ± 2.3e-05 s⁻¹	–	–	6.3e-05 ± 1.7e-05 s⁻¹	–
G38A A39G	< 1e-05 s⁻¹	< 1e-05 s⁻¹	< 1e-05 s⁻¹	–	< 1e-05 s⁻¹
G35C C68A	< 1e-05 s⁻¹	< 1e-05 s⁻¹	< 1e-05 s⁻¹	< 1e-05 s⁻¹	< 1e-05 s⁻¹
G51C C67A	< 1e-05 s⁻¹	< 1e-05 s⁻¹	< 1e-05 s⁻¹	–	< 1e-05 s⁻¹
U54G U69C	0.00112 ± 0.00028 s⁻¹	0.000153 ± 6e-05 s⁻¹	0.000689 ± 0.00017 s⁻¹	0.00526 ± 0.0011 s⁻¹	0.00133 ± 0.00041 s⁻¹
C10U G32A A39C U57C C61G C68G	< 1e-05 s⁻¹	–	< 1e-05 s⁻¹	< 1e-05 s⁻¹	–
C8U G40C	< 1e-05 s⁻¹	–	< 1e-05 s⁻¹	< 1e-05 s⁻¹	–
G7C C8U A39U A53U	< 1e-05 s⁻¹	–	–	< 1e-05 s⁻¹	–
G63C A64C	< 1e-05 s⁻¹	< 1e-05 s⁻¹	–	< 1e-05 s⁻¹	–
A12U U45A C58G C71G	< 1e-05 s⁻¹	–	–	3.15e-05 ± 1.5e-05 s⁻¹	4.36e-05 ± 1.4e-05 s⁻¹
C34G G40U G63C C68U	< 1e-05 s⁻¹	–	–	< 1e-05 s⁻¹	–
C16U A33U C68A	< 1e-05 s⁻¹	< 1e-05 s⁻¹	–	–	–

Variant	self-cleavage kobs at 40 uM GlcN6P (glucosamine-6-phosphate [1])	self-cleavage kobs at 160 uM GlcN6P (glucosamine-6-phosphate [2])	self-cleavage kobs at 640 uM GlcN6P (glucosamine-6-phosphate [3])	self-cleavage kobs at 10000 uM GlcN6P (glucosamine-6-phosphate [4])	self-cleavage kobs at 2500 uM GlcN6P (glucosamine-6-phosphate [5])
G41C A42C	< 1e-05 s⁻¹	< 1e-05 s⁻¹	< 1e-05 s⁻¹	–	< 1e-05 s⁻¹
A33U U65G C71U	< 1e-05 s⁻¹	–	–	–	–
C8A A48U	< 1e-05 s⁻¹	–	< 1e-05 s⁻¹	–	< 1e-05 s⁻¹
G13A G43A C67A	< 1e-05 s⁻¹	–	–	–	–
C16G A48C C50A C58U A64U	< 1e-05 s⁻¹	–	–	< 1e-05 s⁻¹	–
A33G C34G G35U G38U	< 1e-05 s⁻¹	–	–	< 1e-05 s⁻¹	–
U30G C61U	< 1e-05 s⁻¹	–	< 1e-05 s⁻¹	–	< 1e-05 s⁻¹
A42C U57A	< 1e-05 s⁻¹	–	< 1e-05 s⁻¹	< 1e-05 s⁻¹	< 1e-05 s⁻¹
A14U C16U C70U	0.000248 ± 7.9e-05 s⁻¹	–	–	0.00877 ± 0.0026 s⁻¹	0.00092 ± 0.0002 s⁻¹
U45C U54G	3.96e-05 ± 1.3e-05 s⁻¹	0.000199 ± 3.9e-05 s⁻¹	0.00067 ± 0.00015 s⁻¹	0.00305 ± 0.00064 s⁻¹	0.000454 ± 0.00018 s⁻¹
C10U C50U U57C	< 1e-05 s⁻¹	–	–	–	–
C16U U31A A36G	< 1e-05 s⁻¹	–	–	–	–
C19A C67A	0.000243 ± 6.1e-05 s⁻¹	–	0.00033 ± 9.6e-05 s⁻¹	0.000881 ± 0.00024 s⁻¹	–
G38C U49G A52C	< 1e-05 s⁻¹	–	–	–	< 1e-05 s⁻¹
A6C C16U C70U	< 1e-05 s⁻¹	–	–	9.69e-05 ± 1.9e-05 s⁻¹	–
G38A G41U U46C	< 1e-05 s⁻¹	–	–	< 1e-05 s⁻¹	–
U30A G59A G60C C71A	< 1e-05 s⁻¹	–	–	< 1e-05 s⁻¹	–
A12G G60C	< 1e-05 s⁻¹	< 1e-05 s⁻¹	< 1e-05 s⁻¹	< 1e-05 s⁻¹	< 1e-05 s⁻¹
G13U A14C G35U G59C	< 1e-05 s⁻¹	–	–	–	–
G7U A14U U55C G63U C70A	< 1e-05 s⁻¹	–	< 1e-05 s⁻¹	–	< 1e-05 s⁻¹
G43U A48G C70G	< 1e-05 s⁻¹	–	–	< 1e-05 s⁻¹	–
G44A A52C	< 1e-05 s⁻¹	< 1e-05 s⁻¹	< 1e-05 s⁻¹	< 1e-05 s⁻¹	< 1e-05 s⁻¹
C34G G37C C61U U65A	< 1e-05 s⁻¹	–	–	< 1e-05 s⁻¹	–
G7A U31C A48U	< 1e-05 s⁻¹	–	–	–	–

Variant	self-cleavage kobs at 40 uM GlcN6P (glucosamine-6-phosphate [1])	self-cleavage kobs at 160 uM GlcN6P (glucosamine-6-phosphate [2])	self-cleavage kobs at 640 uM GlcN6P (glucosamine-6-phosphate [3])	self-cleavage kobs at 10000 uM GlcN6P (glucosamine-6-phosphate [4])	self-cleavage kobs at 2500 uM GlcN6P (glucosamine-6-phosphate [5])
A15U G40U G44A	< 1e-05 s⁻¹	–	–	< 1e-05 s⁻¹	–
U30C C61U	< 1e-05 s⁻¹	< 1e-05 s⁻¹	–	–	–
G7U C11U A33U G40C	< 1e-05 s⁻¹	–	–	< 1e-05 s⁻¹	< 1e-05 s⁻¹
C11U G38U A52U	< 1e-05 s⁻¹	< 1e-05 s⁻¹	< 1e-05 s⁻¹	< 1e-05 s⁻¹	–
G13U G32U G37A G40C	< 1e-05 s⁻¹	–	–	–	–
G9U G44U	< 1e-05 s⁻¹	–	< 1e-05 s⁻¹	< 1e-05 s⁻¹	< 1e-05 s⁻¹
A33C A52C C71A	< 1e-05 s⁻¹	–	< 1e-05 s⁻¹	–	< 1e-05 s⁻¹
G7A A33C	< 1e-05 s⁻¹	< 1e-05 s⁻¹	< 1e-05 s⁻¹	< 1e-05 s⁻¹	–
C11G C16A A48C	< 1e-05 s⁻¹	–	–	< 1e-05 s⁻¹	–
C8A A53C	< 1e-05 s⁻¹	< 1e-05 s⁻¹	< 1e-05 s⁻¹	< 1e-05 s⁻¹	< 1e-05 s⁻¹
G9C G13U G44C U45G	< 1e-05 s⁻¹	–	< 1e-05 s⁻¹	–	< 1e-05 s⁻¹
U55C C68G	< 1e-05 s⁻¹	–	–	< 1e-05 s⁻¹	–
C34A A64G	< 1e-05 s⁻¹	< 1e-05 s⁻¹	–	–	< 1e-05 s⁻¹
A12G A64U C71U	< 1e-05 s⁻¹	–	–	–	–
G37A A48G	< 1e-05 s⁻¹	< 1e-05 s⁻¹	–	–	–
A52C G62C C70A	< 1e-05 s⁻¹	–	–	–	–
C34A U54C	< 1e-05 s⁻¹	< 1e-05 s⁻¹	< 1e-05 s⁻¹	< 1e-05 s⁻¹	–
U45C G63A	< 1e-05 s⁻¹	< 1e-05 s⁻¹	–	< 1e-05 s⁻¹	< 1e-05 s⁻¹
C10U G37U	< 1e-05 s⁻¹	–	< 1e-05 s⁻¹	< 1e-05 s⁻¹	–
A6G A15C G35A	< 1e-05 s⁻¹	–	–	< 1e-05 s⁻¹	–
C8U A14G C16U	< 1e-05 s⁻¹	–	–	< 1e-05 s⁻¹	–
U47A U55A	0.000618 ± 0.00013 s⁻¹	0.00147 ± 0.00021 s⁻¹	0.00544 ± 0.0015 s⁻¹	0.0432 ± 0.015 s⁻¹	0.00615 ± 0.0017 s⁻¹
A6C A42G	< 1e-05 s⁻¹	< 1e-05 s⁻¹	–	9.6e-05 ± 1.1e-05 s⁻¹	6.82e-05 ± 1.8e-05 s⁻¹
C11A C34A U47G	< 1e-05 s⁻¹	–	–	–	< 1e-05 s⁻¹

Variant	self-cleavage kobs at 40 uM GlcN6P (glucosamine-6-phosphate [1])	self-cleavage kobs at 160 uM GlcN6P (glucosamine-6-phosphate [2])	self-cleavage kobs at 640 uM GlcN6P (glucosamine-6-phosphate [3])	self-cleavage kobs at 10000 uM GlcN6P (glucosamine-6-phosphate [4])	self-cleavage kobs at 2500 uM GlcN6P (glucosamine-6-phosphate [5])
G29U G41A C58U	< 1e-05 s⁻¹	–	–	< 1e-05 s⁻¹	–
A6G A42U C58U	< 1e-05 s⁻¹	–	–	–	–
G51C C58G	< 1e-05 s⁻¹	–	–	–	–
G7A G59A	< 1e-05 s⁻¹	< 1e-05 s⁻¹	< 1e-05 s⁻¹	< 1e-05 s⁻¹	< 1e-05 s⁻¹
A52G G66C	< 1e-05 s⁻¹	–	–	–	4.69e-05 ± 1.5e-05 s⁻¹
C11G A39G U45C G60A G66U	< 1e-05 s⁻¹	–	–	–	–
G38A U49G A52U	< 1e-05 s⁻¹	–	–	–	–
G60U U69C	< 1e-05 s⁻¹	< 1e-05 s⁻¹	< 1e-05 s⁻¹	< 1e-05 s⁻¹	–
A12C G62U	< 1e-05 s⁻¹	< 1e-05 s⁻¹	< 1e-05 s⁻¹	< 1e-05 s⁻¹	< 1e-05 s⁻¹
A53U U65A	4.97e-05 ± 1.8e-05 s⁻¹	7.52e-05 ± 2.1e-05 s⁻¹	–	0.00253 ± 0.00061 s⁻¹	0.00238 ± 0.00058 s⁻¹
A6G G44U C61U	< 1e-05 s⁻¹	< 1e-05 s⁻¹	< 1e-05 s⁻¹	< 1e-05 s⁻¹	< 1e-05 s⁻¹
G13U U45C	< 1e-05 s⁻¹	< 1e-05 s⁻¹	–	6.21e-05 ± 1.4e-05 s⁻¹	–
A15U G29C G43C	< 1e-05 s⁻¹	–	–	–	–
C10G G35C G40A U57G	< 1e-05 s⁻¹	–	–	–	< 1e-05 s⁻¹
C34G A42G U56G C67A	< 1e-05 s⁻¹	–	–	< 1e-05 s⁻¹	–
G38C G60C C70U	< 1e-05 s⁻¹	–	–	–	–
G37C A39G	< 1e-05 s⁻¹	–	–	3.63e-05 ± 7.3e-06 s⁻¹	–
G32U U65C	< 1e-05 s⁻¹	< 1e-05 s⁻¹	< 1e-05 s⁻¹	–	< 1e-05 s⁻¹
G29C U54A	6.64e-05 ± 1.5e-05 s⁻¹	–	0.000499 ± 8.4e-05 s⁻¹	0.00381 ± 0.00046 s⁻¹	0.000928 ± 0.00025 s⁻¹
A15C A33U C61A	< 1e-05 s⁻¹	–	–	–	–
G43C C50A U65C C68U	< 1e-05 s⁻¹	–	–	< 1e-05 s⁻¹	–
A15G C34U	< 1e-05 s⁻¹	< 1e-05 s⁻¹	< 1e-05 s⁻¹	< 1e-05 s⁻¹	< 1e-05 s⁻¹

Reference: the supplement of paper PMC7125110
